The target of test [1] is individual catalytic domain of human MT2-MMP (human).
In test [2] the target is individual catalytic domain of human MT3-MMP (human).
Test [3] has as its target individual catalytic domain of human MT4-MMP (human).
For test [4], the target named is individual catalytic domain of human MT5-MMP (human).
Test [5] deals with individual catalytic domain of human MT6-MMP (human).
Chain of individual catalytic domain of human MT6-MMP (human) (Q9NPA2 22-562): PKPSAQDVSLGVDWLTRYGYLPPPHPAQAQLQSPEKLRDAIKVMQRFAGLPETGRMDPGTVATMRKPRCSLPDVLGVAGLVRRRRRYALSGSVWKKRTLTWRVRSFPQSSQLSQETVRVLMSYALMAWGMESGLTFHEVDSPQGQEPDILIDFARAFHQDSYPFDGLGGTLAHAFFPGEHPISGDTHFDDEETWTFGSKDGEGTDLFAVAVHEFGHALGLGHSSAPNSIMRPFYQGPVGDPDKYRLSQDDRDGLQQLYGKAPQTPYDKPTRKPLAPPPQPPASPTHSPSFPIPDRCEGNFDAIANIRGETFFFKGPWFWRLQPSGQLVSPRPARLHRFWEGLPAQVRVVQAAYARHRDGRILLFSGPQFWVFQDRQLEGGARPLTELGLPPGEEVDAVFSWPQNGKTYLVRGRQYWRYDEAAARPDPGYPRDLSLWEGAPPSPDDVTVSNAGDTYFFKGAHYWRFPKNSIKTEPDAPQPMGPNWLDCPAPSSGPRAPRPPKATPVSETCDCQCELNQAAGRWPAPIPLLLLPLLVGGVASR

Chain of individual catalytic domain of human MT5-MMP (human) (Q9Y5R2 53-645): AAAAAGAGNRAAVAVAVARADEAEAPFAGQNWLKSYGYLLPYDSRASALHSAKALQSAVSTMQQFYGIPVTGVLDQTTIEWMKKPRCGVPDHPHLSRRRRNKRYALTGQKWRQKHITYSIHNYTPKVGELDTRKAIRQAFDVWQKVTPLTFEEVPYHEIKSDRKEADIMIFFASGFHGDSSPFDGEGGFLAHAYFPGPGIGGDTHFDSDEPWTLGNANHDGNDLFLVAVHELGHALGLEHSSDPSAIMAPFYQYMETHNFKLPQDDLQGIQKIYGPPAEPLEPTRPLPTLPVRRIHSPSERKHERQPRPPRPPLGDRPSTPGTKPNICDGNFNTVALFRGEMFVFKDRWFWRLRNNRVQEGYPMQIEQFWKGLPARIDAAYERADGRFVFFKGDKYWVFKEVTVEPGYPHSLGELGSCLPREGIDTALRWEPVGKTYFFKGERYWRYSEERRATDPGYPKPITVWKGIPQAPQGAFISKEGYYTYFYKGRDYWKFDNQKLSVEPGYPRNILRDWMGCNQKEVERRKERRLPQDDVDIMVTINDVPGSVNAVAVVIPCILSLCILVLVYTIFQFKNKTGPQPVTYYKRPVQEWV
Chain of individual catalytic domain of human MT3-MMP (human) (P51512 32-607): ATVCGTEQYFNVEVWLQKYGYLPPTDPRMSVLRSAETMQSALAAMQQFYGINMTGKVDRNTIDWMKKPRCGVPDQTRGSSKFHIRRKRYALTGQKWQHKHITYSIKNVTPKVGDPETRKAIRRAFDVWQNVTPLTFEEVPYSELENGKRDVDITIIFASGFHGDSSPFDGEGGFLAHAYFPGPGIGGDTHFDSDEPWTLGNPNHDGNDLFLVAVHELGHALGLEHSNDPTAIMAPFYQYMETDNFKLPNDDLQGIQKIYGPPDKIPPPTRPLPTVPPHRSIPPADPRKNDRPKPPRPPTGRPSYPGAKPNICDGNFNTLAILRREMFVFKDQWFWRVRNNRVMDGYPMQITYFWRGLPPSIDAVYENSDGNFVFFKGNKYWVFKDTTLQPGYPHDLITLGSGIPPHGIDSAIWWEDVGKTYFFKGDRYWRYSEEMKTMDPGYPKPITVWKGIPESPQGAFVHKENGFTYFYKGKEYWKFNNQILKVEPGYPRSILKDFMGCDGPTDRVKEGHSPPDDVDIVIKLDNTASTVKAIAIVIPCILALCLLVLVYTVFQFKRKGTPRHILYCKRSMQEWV
Chain of individual catalytic domain of human MT2-MMP (human) (P51511 42-669): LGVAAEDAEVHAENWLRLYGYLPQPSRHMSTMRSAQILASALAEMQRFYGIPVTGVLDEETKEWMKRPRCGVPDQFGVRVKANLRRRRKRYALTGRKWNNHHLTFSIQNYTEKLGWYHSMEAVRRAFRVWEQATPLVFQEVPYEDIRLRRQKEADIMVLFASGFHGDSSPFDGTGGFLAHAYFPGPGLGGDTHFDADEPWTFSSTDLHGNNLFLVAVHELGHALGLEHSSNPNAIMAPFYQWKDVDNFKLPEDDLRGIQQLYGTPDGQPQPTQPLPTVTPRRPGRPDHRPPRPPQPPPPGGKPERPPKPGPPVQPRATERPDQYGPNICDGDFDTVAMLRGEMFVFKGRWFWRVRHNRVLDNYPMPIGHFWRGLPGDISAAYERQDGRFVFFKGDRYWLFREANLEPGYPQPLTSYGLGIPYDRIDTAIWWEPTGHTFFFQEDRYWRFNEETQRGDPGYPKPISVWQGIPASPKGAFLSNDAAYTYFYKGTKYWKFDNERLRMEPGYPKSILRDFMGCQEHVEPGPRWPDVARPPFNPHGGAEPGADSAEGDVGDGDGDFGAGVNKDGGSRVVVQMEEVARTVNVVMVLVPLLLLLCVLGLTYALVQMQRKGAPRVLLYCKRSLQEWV
Chain of individual catalytic domain of human MT4-MMP (human) (Q9ULZ9 36-603): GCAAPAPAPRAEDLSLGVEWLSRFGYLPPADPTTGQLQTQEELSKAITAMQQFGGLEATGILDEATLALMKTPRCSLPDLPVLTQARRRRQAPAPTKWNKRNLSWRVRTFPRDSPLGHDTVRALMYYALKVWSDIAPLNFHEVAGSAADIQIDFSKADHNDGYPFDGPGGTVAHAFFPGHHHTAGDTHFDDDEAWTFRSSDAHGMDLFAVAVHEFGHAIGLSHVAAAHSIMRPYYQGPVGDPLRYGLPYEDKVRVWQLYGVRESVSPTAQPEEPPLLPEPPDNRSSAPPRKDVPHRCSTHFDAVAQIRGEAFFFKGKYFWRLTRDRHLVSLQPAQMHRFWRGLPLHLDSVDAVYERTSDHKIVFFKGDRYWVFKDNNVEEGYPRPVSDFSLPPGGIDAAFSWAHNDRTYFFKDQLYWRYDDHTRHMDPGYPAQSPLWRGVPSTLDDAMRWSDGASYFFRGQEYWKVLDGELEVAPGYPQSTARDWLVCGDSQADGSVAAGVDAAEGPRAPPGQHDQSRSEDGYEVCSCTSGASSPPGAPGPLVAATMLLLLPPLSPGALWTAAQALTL

B1: 3A2 Fab (Fab, V domains shown)
VH: EVQLVESGGGLVQPGGSLRLSCAASGFNLSSSSMHWVRQAPGKGLEWVASIYPSYSYTYYADSVKGRFTISADTSKNTAYLQMNSLRAEDTAVYYCARVKLQKDKSHQWIRNLVATPYGRYVMDYWGQGTLVTVSS
VL: DIQMTQSPSSLSASVGDRVTITCRASQSVSSAVAWYQQKPGKAPKLLIYSASSLYSGVPSRFSGSRSGTDFTLTISSLQPEDFATYYCQQYGYPITFGQGTKVEIK
In test [1], B1 gave an IC50 of inhibition of the CAT of MT2-MMP (5 nM), cleavage of Mca-PLGL-Dpa-AR-NH2 (1 uM); 3A2 Fab 0-5,000 nM of 1800 nM. In test [2], this molecule had an IC50 of inhibition of the CAT of MT3-MMP (5 nM), cleavage of Mca-PLGL-Dpa-AR-NH2 (1 uM); 3A2 Fab 0-5,000 nM of 335 nM. Moreover, in test [3], the IC50 of inhibition of the CAT of MT4-MMP (5 nM), cleavage of Mca-PLGL-Dpa-AR-NH2 (1 uM); 3A2 Fab 0-5,000 nM is above 5000 nM. Also, the IC50 of inhibition of the CAT of MT5-MMP (5 nM), cleavage of Mca-PLGL-Dpa-AR-NH2 (1 uM); 3A2 Fab 0-5,000 nM in test [4] was 425 nM. Also, in test [5], the IC50 of inhibition of the CAT of MT6-MMP (5 nM), cleavage of Mca-PLGL-Dpa-AR-NH2 (1 uM); 3A2 Fab 0-5,000 nM is above 5000 nM.

The values above are taken from PMC5356841.
